Laboratory results published in patent US20230357323A1 (University of Washington, published 2023).
Blank lines part the entries; values can stand above or below the binder they belong to. No end group written: not given here.

B13: human IL-23R (hIL-23R), custom construct with C-terminal avi and his tags, biotinylated (receptor, UniProt Q5VWK5 24-355, looked up, not shown: small tags and cut ends)
chain: GITNINCSGHIWVEPATIFKMGMNISIYCQAAIKNCQPRKLHFYKNGIKERFQITRINKTTARLWYKNFLEPHASMYCTAECPKHFQETLICGKDISSGYPPDIPDEVTCVIYEYSGNMTCTWNAGKLTYIDTKYVVHVKSLETEEEQQYLTSSYINISTDSLQGGKKYLVWVQAANALGMEESKQLQIHLDDIVIPSAAVISRAETINATVPKTIIYWDSQTTIEKVSCEMRYKATTNQTWNVKEFDTNFTYVQQSEFYLEPNIKYVFQVRCQETGKRYWQPWSSLFFHKTPETVPQVTSKAFQHDTWNSGLTVASISTGHLTSDNRGDIG
modifications: enzymatically biotinylated via the avi-tag
notes: immobilized on streptavidin tips in BLI, labeled target in FACS; also called human IL-23 receptor

Key:
[1] = target: IL-23R on IL-23 reporter cells (Promega IL-23 Bioassay); assay: cell-based or functional assay
[2] = target: B13; assay: yeast display FACS, SIF incubation then labeled hIL-23R, 5-7 rounds
Method: Yeast libraries were first incubated in SIF at 30C, then washed thoroughly and incubated with labeled hIL-23R, and cells retaining the highest binding signal (top 1-5%) were collected by FACS. Two rounds of selection were performed for each library, and the SIF incubation time and/or concentration of proteases were increased from first to second round. […] Indeed in several libraries we saw a large population of Myc-negative, binding-positive cells. In parallel, we performed two rounds of selection for binding to hIL-23R only, without pre-incubation in SIF. […] Best mutations were included in combinatorial libraries, sorted as above for 5-7 rounds after which individual clones were sequenced. Variants present in the final sorts were expressed in E. coli and characterized (SEQ ID NOS: 70-74 and 153-164).
Yeast strain EBY100 was transformed with each library and vector by electroporation and grow in minimal media selective for the yeast strain (-ura) and the transforming plasmid (-trp).²⁷ Expression was induced with 2% galactose. Surface expression was detected with anti-Myc-FITC (Immunology Consultants Laboratory) conjugate, and binding to biotinylated IL-23R was detected with streptavidin-PE (Invitrogen).
SIF SSM and combinatorial libraries were prepared as follows: after 16-24 hours induction, yeast were spun down, washed with PBSF, resuspended in SIF (recipe described below) at an OD of 2.0, and incubated at 30° C. shaking for 30-90 minutes as noted. After SIF digest, cells were spun down and washed 4 times with 800 uL PBSF, manually aspirating the supernatant each time to ensure complete washing to remove proteases. SIF-treated cells were then treated with target protein as described above.

[3] = target: B13; assay: BLI titration, biotinylated hIL-23R on streptavidin tips
Method: (§1) Qualitative and quantitative assessment of binding affinity was performed using biolayer interferometry (ForteBio Octet™ […] and associated software for analysis). Enzymatically biotinylated target protein (30 nM) was immobilized on streptavidin-coated sensor tips, then sequentially dipped in wells with: buffer only (baseline), inhibitor in solution (association), and buffer only (dissociation). Kinetic constants were determined from the mathematical fit of a 1:1 binding model.

[4] = target: B13; assay: biolayer interferometry titration, biotinylated hIL-23R immobilised on streptavidin tips, 1:1 fit
Method: (§2) Variants were first screened for relative binding to hIL-23R with biolayer interferometry (BLI). hIL-23R was immobilized on the BLI sensor tips and binding to each variant in solution at a constant concentration (50 nM) was measured to qualitatively determine relative performance of the variants. For the best-performing variants, binding constants (KD, including kₒₙ, and koff) were quantitatively determined with BLI titration experiments in triplicate.
as §1

[5] = target: T1, human IL-23 cytokine (p19/p40 heterodimer) (human, UniProt Q9NPF7 20-189; P29460 23-328); assay: table of binding constants on hIL-23R; biolayer interferometry per paragraph 183 and paragraph 210, method not stated separately for this row
T1 construct: recombinant human IL-23 (R&D 1290-IL) is named for the cell assay; also called native ligand
T1 sequence (looked up) 1: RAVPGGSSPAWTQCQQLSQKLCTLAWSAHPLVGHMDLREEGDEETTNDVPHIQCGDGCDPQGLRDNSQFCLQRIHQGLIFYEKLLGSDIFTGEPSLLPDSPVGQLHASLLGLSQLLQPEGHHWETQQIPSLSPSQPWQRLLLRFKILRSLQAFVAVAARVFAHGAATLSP
T1 sequence (looked up) 2: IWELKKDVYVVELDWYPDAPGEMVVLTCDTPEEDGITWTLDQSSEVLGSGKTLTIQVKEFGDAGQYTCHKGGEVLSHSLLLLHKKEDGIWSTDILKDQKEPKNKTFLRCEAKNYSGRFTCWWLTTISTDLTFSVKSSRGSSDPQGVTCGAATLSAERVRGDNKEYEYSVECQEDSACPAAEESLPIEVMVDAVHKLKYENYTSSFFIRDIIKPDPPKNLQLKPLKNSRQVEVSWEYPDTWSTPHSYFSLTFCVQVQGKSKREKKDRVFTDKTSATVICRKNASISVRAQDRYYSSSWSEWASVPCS
Method: as §2, §1

[6] = target: T1, human IL-23 cytokine (p19/p40 …); assay: method not stated here (FIG. 2E lists constants of the native ligand)
[7] = target: B13; assay: SPR
[8] = target: IL-23R on IL-23 reporter cells (Promega IL-23 Bioassay); assay: cell-based or functional assay; remark: listed apart in the source
[9] = target: B13; assay: biolayer interferometry titration, biotinylated hIL-23R immobilised on streptavidin tips
Method: as §2, §1

[10] = target: B13; assay: yeast display FACS

Chain of IL-23R on IL-23 reporter cells (Promega IL-23 Bioassay) (Q5VWK5 whole entry): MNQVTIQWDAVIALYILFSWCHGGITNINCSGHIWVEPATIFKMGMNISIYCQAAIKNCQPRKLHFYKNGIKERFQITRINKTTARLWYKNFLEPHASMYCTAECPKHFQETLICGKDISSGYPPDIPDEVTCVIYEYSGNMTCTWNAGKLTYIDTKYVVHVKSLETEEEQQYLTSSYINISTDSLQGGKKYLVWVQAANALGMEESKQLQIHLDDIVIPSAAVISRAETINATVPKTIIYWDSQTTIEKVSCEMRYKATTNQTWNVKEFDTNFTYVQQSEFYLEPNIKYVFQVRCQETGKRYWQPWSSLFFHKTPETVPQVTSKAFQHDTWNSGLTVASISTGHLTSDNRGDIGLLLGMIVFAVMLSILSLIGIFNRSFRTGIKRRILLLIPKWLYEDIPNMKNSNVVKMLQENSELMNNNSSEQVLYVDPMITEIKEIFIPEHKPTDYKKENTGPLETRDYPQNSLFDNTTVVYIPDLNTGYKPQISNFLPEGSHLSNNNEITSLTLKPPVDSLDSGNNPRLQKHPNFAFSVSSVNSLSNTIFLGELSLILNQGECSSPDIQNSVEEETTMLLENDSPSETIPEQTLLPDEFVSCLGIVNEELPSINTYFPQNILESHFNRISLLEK

B1: 23R_mini_17_C11 (designed binder)
chain: CKVKCGPVEFEATERWMCFYWYNKYC
modifications: not fully specified (bridges); cysteine pairing not given here
Fold better than competitor (IC50 against that of PTG compound C, IL-23 reporter cell assay) [table] [1]: 27 fold | IC50; inhibition of luciferase signal of IL-23 reporter cells stimulated with 8 ng/mL human IL-23 [table] [1]: 281 nM

B2: B0402ID (designed binder)
chain: ELWQVFYLLNTCIKRTCDPTCKKLAKALRECLKKGDLKACKEDAYKALDYIRS
binding result [2]: binds

B3: B0402IC (designed binder)
chain: PLWQIFYLLNTCIKRTGDPTCKVLSKALRECLKKGDVKACSELASKAEKYINS
binding result [2]: binds

B4: 23R_B (designed binder)
chain: NLWQIFYQLSTILKRTGDPTAKKLLKALAEALKKGDEKALKELAKKATKYIRSHHHHHH
notes: purified from E. coli for BLI
Kd [3]: 70 nM | Kd [4]: 50 nM | koff [4]: 0.015 s⁻¹ | kon [4]: 500000 M⁻¹ s⁻¹

B5: 23R_mini_14_C4 (designed binder)
chain: CRVCKNGFCVDARECWMAYYLLNQYN
modifications: not fully specified (bridges); cysteine pairing not given here
Fold better than competitor (IC50 against that of PTG compound C, IL-23 reporter cell assay) [table] [1]: 16 fold | IC50; inhibition of luciferase signal of IL-23 reporter cells stimulated with 8 ng/mL human IL-23 [table] [1]: 487 nM

B6: B0402SB (designed binder)
chain: QLWQIFYLLNTCIKRTGDPTCKKLIKALRECLKKGDAKACDELAKKAVKYIMS
binding result [2]: binds

B7: B0402SE (designed binder)
chain: QLWQIFYLLNTCIKRTGDPTCKKLKKALRECLKKGDAKACKEAADKAVKYIMS
binding result [2]: binds

Binder: B13
Kd [5]: 1.69 nM | koff [5]: 0.0013 s⁻¹ | kon [5]: 780000 M⁻¹ s⁻¹ | Kd [6]: 1.7 nM

B16: B04dslf02IB (designed binder)
chain: PLWQVFYLLNTCIKRTGDPTCKKLAKALRECLKKGDLKACNELADKAVKYINSHHHHHH
notes: purified form with C-terminal tag; also called B0402IB; BO4dslf02IB
Kd [7]: < 0.001 nM | IC50 (read off the curve); IL-23-stimulated luciferase signal in IL-23 reporter cells [lower graph] [8]: ~40 nM | Fold better than competitor (IC50 against that of PTG compound C, IL-23 reporter cell assay) [table] [1]: 484 fold | IC50; inhibition of luciferase signal of IL-23 reporter cells stimulated with 8 ng/mL human IL-23 [table] [1]: 16 nM

B18: B08 (designed binder)
chain: NLWQIFYVLNTIYKRTGDPTAKKLNKALREALKKHDEKATKELAKKATKYIRS
Kd [9]: 0.046 nM | Kd [4]: 0.046 nM | koff [4]: 4.6e-05 s⁻¹ | kon [4]: 990000 M⁻¹ s⁻¹

B19: 23R_A (designed binder)
chain: MESEKYLRELVKKYYEGKLSVQEAVEEVRKYARKKGLEAWMLTWMFMELVKRYIHHHHHH
notes: purified from E. coli for BLI
Kd [3]: 26 nM | koff [4]: 0.014 s⁻¹ | kon [4]: 560000 M⁻¹ s⁻¹

Results, then the binder that gave them:

binding result [2]: binds
B8: B0402SC (designed binder)
chain: QLWQIFYLLNTCIKRTCDPTCKKLKKALRECLKKGDAKACDELADKAVKYIMS

binding result [2]: binds
B9: B0402SD (designed binder)
chain: PLWQIFYLLNTCIKRTGDPTCKKLIKALRECLKKGDPKACAELADKAMKYIMS

binding result [2]: binds
B10: B0402SF (designed binder)
chain: ELWQIFYLLNTCIKRTGDPTCKKLIKALRECLKKGDAKACSELADKAMKYIMS

binding result [2]: binds
B11: B0402SG (designed binder)
chain: ELWQIFYLLNTCIKRTGDPTCKKLIKALRECLKKGDPKACAELAKKAMKYIMS

binding result [2]: binds
B12: B0402SA (designed binder)
chain: ELWQIFYLLNTCIKRTGDPTCKKLIKALRECLKKGDMKACDELAKKAVKYIMS

binding result [2]: binds
B14: B0402IA (designed binder)
chain: PLWQVFYLLNTCIKRTGDPTCKKLAKALRECLKPGDVKACKEVADKAMDYIRS

Kd [7]: 0.075 nM
B15: rA11dslf02_M1P_R8Q_K35W (designed binder)
chain: PEPEKYLQELCKKYYEGKLSQQEAVEEIRKYARKWGLEAWKLVWYFMQCVKRDIHHHHHH

binding result [2]: binds
B17: B0402IE (designed binder)
chain: NLWYIFYLLNTCIKRTCDPTCKVLAKALRECLKKGDLKACSELADKAVDYIRS

binding result [10]: binds
B20: 23R_mini_08 (designed binder)
chain: ASPELKETCERLERLGMERWLILWCKQRAEEG
